Laboratory results published in US20240141071A1 (LAVA THERAPEUTICS N V, published 2024).
Blank lines part the entries; values can stand above or below the binder they belong to.

Columns and labels:
[1] = molecular target: T1, Recombinant, purified CD123 antigen (extra-cellular domain; Sino Biological) (human, UniProt P26951 19-305); assay: phage ELISA on recombinant captured CD123 antigen
T1 construct: Bought; also called recombinant human CD123
T1 sequence: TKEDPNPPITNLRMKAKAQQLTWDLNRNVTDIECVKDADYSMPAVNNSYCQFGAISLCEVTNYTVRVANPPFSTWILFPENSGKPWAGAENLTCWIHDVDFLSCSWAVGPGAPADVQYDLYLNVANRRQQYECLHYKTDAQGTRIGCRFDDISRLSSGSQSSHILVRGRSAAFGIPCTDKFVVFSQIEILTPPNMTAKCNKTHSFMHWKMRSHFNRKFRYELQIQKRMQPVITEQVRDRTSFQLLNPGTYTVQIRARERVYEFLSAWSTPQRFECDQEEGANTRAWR

[2] = molecular target: T2, human CD123 expressed on cells (human, UniProt P26951 19-378); assay: flow cytometry on CD123 expressing C1R-CD1d cells (cell line used for immunization)
T2 construct: also called interleukin-3 receptor alpha chain

[3] = molecular target: T2, human CD123 expressed on cells; assay: cell-based or functional assay
[4] = molecular target: T3, BSA (bovine, UniProt P02769); assay: ELISA, wells coated with 1% BSA (panel BSA), HRP anti-VHH detection
T3 construct: also called bovine serum albumin, negative control coating
T3 sequence (P02769 25-607 limits assumed): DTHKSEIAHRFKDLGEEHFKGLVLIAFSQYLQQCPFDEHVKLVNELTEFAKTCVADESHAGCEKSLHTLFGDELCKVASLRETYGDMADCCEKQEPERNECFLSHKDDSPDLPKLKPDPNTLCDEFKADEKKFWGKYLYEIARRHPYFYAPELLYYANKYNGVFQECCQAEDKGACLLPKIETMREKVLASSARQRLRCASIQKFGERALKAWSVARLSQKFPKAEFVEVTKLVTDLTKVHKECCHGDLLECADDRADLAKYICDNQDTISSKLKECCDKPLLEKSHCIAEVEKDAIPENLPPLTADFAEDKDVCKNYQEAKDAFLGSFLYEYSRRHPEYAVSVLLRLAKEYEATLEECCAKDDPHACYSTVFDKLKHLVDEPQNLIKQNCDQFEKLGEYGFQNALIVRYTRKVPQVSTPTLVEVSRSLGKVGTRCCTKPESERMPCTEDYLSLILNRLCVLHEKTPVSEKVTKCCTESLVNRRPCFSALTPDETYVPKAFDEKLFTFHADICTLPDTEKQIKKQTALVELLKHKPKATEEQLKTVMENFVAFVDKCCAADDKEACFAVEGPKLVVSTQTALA
Source text: FIG. 1: ELISA showing binding of all different bispecific VHHs to CD123, the Vγ9Vδ2 (GDT) TCR and BSA (as negative control). OD values are depicted; values are the mean of duplicate measurements; error bars indicate standard errors of the mean. A mono-valent anti-Vδ2 VHH was used as control for the TCR staining (“TCR control”) and a commercially available anti-CD123 antibody (“anti-CD123”) was used as control for the CD123 antigen coatings. “No AB” indicates a negative control without primary antibody.
Recombinant, purified CD123 antigen (extra-cellular domain; Sino Biological), or an Fc-fusion of the CD123 antigen (Bio-Techne/R&D Systems) was coated to the wells of an ELISA plate (Greiner) in PBS at a concentration of 2 μg/ml. As a negative control, wells were coated with 1% (w/v) BSA. An in-house designed, produced and purified recombinant form of the extra-cellular domains of the human Vγ9 and Vδ2 TCR chains fused to a human Fc was also coated as antigen at 2 μg/ml. After coating and blocking of the wells with 2% (w/v) BSA, bispecific VHH proteins were tested for binding at a saturating concentration of 50 nM and bound VHH was detected using an HRP-labeled anti-VHH antibody (Genscript) and staining using 3,3′,5,5′-tetramethylbenzidine (TMB)/H2O2.

[5] = molecular target: T4, human CD131 (common β chain of the IL3 receptor) expressed on 293F cells (human, UniProt P32927 17-897); assay: flow cytometry on 293F cells transiently expressing CD131, AF647-labeled anti-VHH detection
T4 sequence: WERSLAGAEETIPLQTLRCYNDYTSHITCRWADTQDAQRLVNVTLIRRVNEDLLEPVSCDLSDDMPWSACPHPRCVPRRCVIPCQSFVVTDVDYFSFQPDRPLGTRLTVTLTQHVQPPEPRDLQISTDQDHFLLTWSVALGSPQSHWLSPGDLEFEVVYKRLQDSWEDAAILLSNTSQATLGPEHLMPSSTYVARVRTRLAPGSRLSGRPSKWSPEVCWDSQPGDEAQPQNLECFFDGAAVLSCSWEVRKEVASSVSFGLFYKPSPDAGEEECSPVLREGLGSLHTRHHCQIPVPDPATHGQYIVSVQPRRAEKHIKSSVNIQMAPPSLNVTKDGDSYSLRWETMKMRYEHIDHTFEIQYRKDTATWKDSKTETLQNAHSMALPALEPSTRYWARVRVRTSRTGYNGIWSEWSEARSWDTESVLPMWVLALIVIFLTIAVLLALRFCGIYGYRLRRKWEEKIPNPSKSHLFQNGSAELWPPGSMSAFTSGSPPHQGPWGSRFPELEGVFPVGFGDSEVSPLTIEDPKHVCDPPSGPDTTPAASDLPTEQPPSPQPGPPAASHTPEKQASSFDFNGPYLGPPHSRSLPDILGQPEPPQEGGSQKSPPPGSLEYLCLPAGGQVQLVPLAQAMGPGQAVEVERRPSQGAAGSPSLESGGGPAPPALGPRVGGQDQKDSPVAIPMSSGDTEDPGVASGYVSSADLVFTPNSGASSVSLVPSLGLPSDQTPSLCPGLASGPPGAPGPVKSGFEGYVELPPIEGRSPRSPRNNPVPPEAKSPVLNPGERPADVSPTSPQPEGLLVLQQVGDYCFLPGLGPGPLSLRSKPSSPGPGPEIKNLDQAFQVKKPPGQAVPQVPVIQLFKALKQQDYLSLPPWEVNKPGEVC
Procedure: Expression constructs for human CD123 and for the common β chain of the receptor (CD131) were purchased from Invivogen. Plasmids were transformed to chemically competent DH5α bacteria and a single colony growing on selective medium was used to inoculate a 50 ml culture to amplify both constructs. […] Either plasmid alone, or a mix of the two plasmids was used for transfection. As negative control, untransfected cells were also used for flow cytometry. A day after transfection, cells were used to test the binding of the bispecific VHH using staining in FACS. Briefly, binding of a saturating concentration of 100 nM bispecific VHH to transfected cells was detected with an AF647-labeled anti-VHH (Genscript) antibody and staining was visualized using a FACS Celesta (Becton and Dickinson).

[6] = molecular target: T5, recombinant purified CD123-Fc fusion protein (Bio-Techne/R&D Systems) (human, UniProt P26951 19-305); assay: BLI, CD123-Fc on anti-human IgG Fc capture sensors; *low binding (>20 nM), one measurement only
T5 construct: Bought; also called Fc-fusion of the CD123 antigen; recombinant CD123
T5 sequence: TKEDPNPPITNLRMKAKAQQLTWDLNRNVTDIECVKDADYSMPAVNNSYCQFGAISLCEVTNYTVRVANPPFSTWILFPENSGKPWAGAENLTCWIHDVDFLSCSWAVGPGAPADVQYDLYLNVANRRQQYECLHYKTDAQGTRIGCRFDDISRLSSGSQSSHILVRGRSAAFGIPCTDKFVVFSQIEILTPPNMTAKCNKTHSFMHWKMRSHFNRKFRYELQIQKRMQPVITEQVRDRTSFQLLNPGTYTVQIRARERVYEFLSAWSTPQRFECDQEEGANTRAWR
Procedure: (§1) To determine the kinetics of binding of humanized 1D2-5C8var1 variants to CD123, recombinant purified CD123-Fc fusion protein (Bio-Techne/R&D Systems) was loaded to a density of 1 nm onto anti-human IgG Fc Capture sensors (using a concentration of 5 μg/ml) for an Octet Red96e (Sartorius) instrument. Different sensors were then dipped in different concentrations of humanized 1D2-5C8var1 variants, starting at 50 nM and two-fold dilutions thereof; dilutions were made in 10× kinetic buffer (10×KB) provided by the supplier. From the obtained sensorgrams, the kinetic association- and dissociation rate constants were determined by curve fitting. The association- and dissociation rate constants, when fitting was possible, were used to calculate the affinity of the humanized 1D2-5C8var1 variants for binding to CD123. […] For reference, the non-humanized (parental) 1D2 was included in these experiments.

[7] = molecular target: T5, recombinant purified CD123-Fc fusion …; assay: BLI, CD123-Fc on anti-human IgG Fc capture sensors; SD 7.5
Procedure: as §1

B1: anti-CD123 VHH 1A3 (VHH)
VHH: EVQLVESGGGLVQAGGSLRLSCAASGRAINTYAMAWFRQAPGKERDFVATISYSGGTTDYAGSVKGRFTISRDNAENTVYLQMNSLKPEDTAVYYCAARDRYNPLARNYNYWGQGTQVTVSS
binding result [1]: binds
binding result [2]: binds

B2: 1A3-5C8var1 bispecific VHH (bispecific antibody)
chain: EVQLVESGGGLVQAGGSLRLSCAASGRAINTYAMAWFRQAPGKERDFVATISYSGGTTDYAGSVKGRFTISRDNAENTVYLQMNSLKPEDTAVYYCAARDRYNPLARNYNYWGQGTQVTVSSGGGGSEVQLLESGGGSVQPGGSLRLSCAASGRPFSNYAMSWFRQAPGKEREFVSAISWSGGSTSYADSVKGRFTISRDNSKNTLYLQMNSLRAEDTAVYYCAAQFSGADYGFGRLGIRGYEYDYWGQGTQVTVSSAAAEPEA
notes: Same format as 1D2-5C8var1
EC50 of THP-1 target cell lysis by Vγ9Vδ2 T cells [3]: ~0.05 nM
binding result [4]: no binding (tested: 50 nM (single concentration))
binding result [5]: no binding (tested: 100 nM (single concentration))

B3: 1D2-5C8var1(Y105F)-Fc (bispecific antibody, human IgG1, V domains shown)
V domain 1: EVQLVESGGGLVQAGGSLRLSCAASGRTASSYVMGWFRQAPGKEREFVAVINWNGDSTYYTDSVKGRFAISRDNAKNTVYLQMNSLKPEDTAVYYCAADTRREWYRDGYWGPPARYEYDYRGQGTQVTVSS
V domain 2: EVQLLESGGGSVQPGGSLRLSCAASGRPFSNYAMSWFRQAPGKEREFVSAISWSGGSTSYADSVKGRFTISRDNSKNTLYLQMNSLRAEDTAVYYCAAQFSGADFGFGRLGIRGYEYDYWGQGTQVTVSS
EC50 of THP-1 lysis, donor nr. 2 [3]: 0.001 nM
EC50 of THP-1 target cell lysis by Vγ9Vδ2 T cells, 24 h [3]: 0.001 to 0.003 nM
EC50 of THP-1 target cell lysis in THP-1/pDC/Vγ9Vδ2 T cell co-culture [3]: ~1 pM
EC50 of pDC lysis relative to THP-1 cell lysis [3]: ~10 fold
EC50 of pDC lysis, donor nr. 2 [3]: 11 pM

B4: anti-CD123 VHH 1D2 (VHH)
VHH: EVQLVESGGGLVQAGGSLRLSCAASGRTASSYVMGWFRQAPGKEREFVAVINWNGDSTYYTDSVKGRFAISRDNAKNTVYLQMNSLKPEDTAVYYCAADTRREWYRDGYWGPPARYEYDYRGQGTQVTVSS
notes: also called 1D2 VHH; lead anti-CD123 antibody
binding result [1]: binds
binding result [2]: binds

B5: humanized 1D2-5C8var1 variant with 1D2 var2 (SEQ ID NO:26) (bispecific antibody)
chain: EVQLVESGGGLVQPGGSLRLSCAASGRTASSYVMGWVRQAPGKEREWVSVINWNGDSTYYADSVKGRFTISRDNSKNTLYLQMNSLRAEDTAVYYCAADTRREWYRDGYWGPPARYEYDYRGQGTLVTVSSGGGGSEVQLLESGGGSVQPGGSLRLSCAASGRPFSNYAMSWFRQAPGKEREFVSAISWSGGSTSYADSVKGRFTISRDNSKNTLYLQMNSLRAEDTAVYYCAAQFSGADYGFGRLGIRGYEYDYWGQGTQVTVSSAAAEPEA
notes: See note of m19
Kd [6]: 24.5 nM

Now from value to binder:

Kd [7]: 20 nM
B6: humanized 1D2-5C8var1 variant with 1D2 var4 (SEQ ID NO:28) (bispecific antibody)
chain: EVQLVESGGGVVQPGGSLRLSCAASGRTASSYVMSWFRQAPGKEREWVAVINWNGDSTYYADSVKGRFTISRDNSKNTLYLQMNSLRAEDTAVYYCAADTRREWYRDGYWGPPARYEYDYRGQGTTVTVSSGGGGSEVQLLESGGGSVQPGGSLRLSCAASGRPFSNYAMSWFRQAPGKEREFVSAISWSGGSTSYADSVKGRFTISRDNSKNTLYLQMNSLRAEDTAVYYCAAQFSGADYGFGRLGIRGYEYDYWGQGTQVTVSSAAAEPEA
notes: See note of m19

Kd [6]: 44.1 nM
B7: humanized 1D2-5C8var1 variant with 1D2 var8 (SEQ ID NO:32) (bispecific antibody)
chain: EVQLVESGGGLVQPGGSLRLSCAASGRTASSYVMSWFRQAPGKGLEWVAVINWNGDSTYYADSVKGRFTISRDNSKNTVYLQMNSLRAEDTAVYYCAADTRREWYRDGYWGPPARYEYDYRGQGTLVTVSSGGGGSEVQLLESGGGSVQPGGSLRLSCAASGRPFSNYAMSWFRQAPGKEREFVSAISWSGGSTSYADSVKGRFTISRDNSKNTLYLQMNSLRAEDTAVYYCAAQFSGADYGFGRLGIRGYEYDYWGQGTQVTVSSAAAEPEA
notes: See note of m19

Kd [6]: 29.1 nM
B8: humanized 1D2-5C8var1 variant with 1D2 var6 (SEQ ID NO:30) (bispecific antibody)
chain: EVQLVESGGGLVQPGGSLRLSCAASGRTASSYVMGWVRQAPGKGLEWVSVINWNGDSTYYADSVKGRFTISRDNSKNTLYLQMNSLRAEDTAVYYCAADTRREWYRDGYWGPPARYEYDYRGQGTLVTVSSGGGGSEVQLLESGGGSVQPGGSLRLSCAASGRPFSNYAMSWFRQAPGKEREFVSAISWSGGSTSYADSVKGRFTISRDNSKNTLYLQMNSLRAEDTAVYYCAAQFSGADYGFGRLGIRGYEYDYWGQGTQVTVSSAAAEPEA
notes: See note of m19

Kd [7]: 10.4 nM
B9: humanized 1D2-5C8var1 variant with 1D2 var10 (SEQ ID NO:34) (bispecific antibody)
chain: EVQLVESGGGLVQPGGSLRLSCAASGRTASSYVMGWFRQAPGKEREFVSVINWNGDSTYYADSVKGRFTISRDNSKNTLYLQMNSLRAEDTAVYYCAADTRREWYRDGFWGPPARYEYDYRGQGTQVTVSSGGGGSEVQLLESGGGSVQPGGSLRLSCAASGRPFSNYAMSWFRQAPGKEREFVSAISWSGGSTSYADSVKGRFTISRDNSKNTLYLQMNSLRAEDTAVYYCAAQFSGADYGFGRLGIRGYEYDYWGQGTQVTVSSAAAEPEA
notes: See note of m19
